This note sets out measurements from patent US20230167182A1 (BIOSION, published 2023).

Assay [1] deals with T1, human IL6R-Fc protein (human, biotin-labeled in the ELISAs (sites not given)).
T1 construct: In house made; also called biotin-labeled human IL6R-Fc protein
Put plainly: benchmark blocking ELISA: antibody pre-incubated with biotin-labeled human IL6R-Fc, added to plate-coated Tocilizumab (competitor: Tocilizumab). How it is done:
(§1) ELISA plates were washed once with wash buffer (PBS+0.05% v/v Tween-20, PBST) and then blocked with 200 μl/well blocking buffer (5% w/v non-fatty milk in PBST) overnight at 4° C.
(§2) The next day, the anti-IL6R antibodies of the disclosure or controls were diluted with biotin labeled human IL6R-Fc protein (SEQ ID NO: 43, 13.6 ng/ml in 2.5% w/v non-fatty milk in PBST), starting at 100 nM with a 5-fold serial dilution, and incubated at room temperature for 40 minutes. […] After incubation at 37° C. for 40 minutes, plates were washed 4 times using wash buffer. Then streptavidin conjugated HRP was added, and the plates were incubated for 40 minutes at 37° C. The plates were finally washed using wash buffer, and added with TMB. The reaction was stopped using 1M […], and the absorbance was read on a microplate reader using dual wavelength mode with 450 nm for TMB and 630 nm as the reference wavelength. The OD (450-630) values were plotted against antibody concentration. Data was analyzed using Graphpad Prism software and IC₅₀ values were reported.
Target sequence in this assay (chain, as listed by the source limits assumed): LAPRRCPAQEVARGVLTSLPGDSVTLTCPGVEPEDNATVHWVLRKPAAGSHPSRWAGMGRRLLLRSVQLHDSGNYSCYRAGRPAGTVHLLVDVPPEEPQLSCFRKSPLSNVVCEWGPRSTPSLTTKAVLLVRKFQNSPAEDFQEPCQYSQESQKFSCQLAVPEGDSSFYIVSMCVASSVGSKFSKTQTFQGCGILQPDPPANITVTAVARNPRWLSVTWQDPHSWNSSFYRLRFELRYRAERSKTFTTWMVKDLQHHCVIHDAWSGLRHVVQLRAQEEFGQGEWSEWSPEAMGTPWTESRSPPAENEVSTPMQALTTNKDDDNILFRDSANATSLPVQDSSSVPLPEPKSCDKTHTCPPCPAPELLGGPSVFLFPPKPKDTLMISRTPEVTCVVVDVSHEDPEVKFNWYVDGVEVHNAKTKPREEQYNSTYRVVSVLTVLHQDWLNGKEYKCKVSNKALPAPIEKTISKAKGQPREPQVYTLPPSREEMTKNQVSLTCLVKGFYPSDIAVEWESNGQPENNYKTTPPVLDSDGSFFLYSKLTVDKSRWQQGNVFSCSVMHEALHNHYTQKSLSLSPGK

Assay [2] has as its target T2, macaca IL6R-his protein (macaca mulatta).
T2 chain: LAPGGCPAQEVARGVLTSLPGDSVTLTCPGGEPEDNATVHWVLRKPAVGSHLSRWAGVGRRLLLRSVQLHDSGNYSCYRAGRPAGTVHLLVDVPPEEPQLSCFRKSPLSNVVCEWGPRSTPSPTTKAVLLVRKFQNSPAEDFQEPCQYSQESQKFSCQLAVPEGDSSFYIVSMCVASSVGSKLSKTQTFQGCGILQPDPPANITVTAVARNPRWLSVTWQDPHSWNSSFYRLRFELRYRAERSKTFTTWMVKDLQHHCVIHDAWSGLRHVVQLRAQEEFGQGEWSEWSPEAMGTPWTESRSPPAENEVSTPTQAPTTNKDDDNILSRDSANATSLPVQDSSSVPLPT
Put plainly: indirect ELISA on plate-coated macaca IL6R-his.

For assay [3], the target named is T2, macaca IL6R-his protein. Put plainly: SPR Biacore; purified antibody captured by anti-human IgG on CM5, antigen in flow.
For assay [4], the target named is T3, recombinant human IL6R-his (human, UniProt P08887 20-365).
T3 construct: In house made; the entry includes the C-terminal His tag; also called human IL6R-his protein
T3 sequence: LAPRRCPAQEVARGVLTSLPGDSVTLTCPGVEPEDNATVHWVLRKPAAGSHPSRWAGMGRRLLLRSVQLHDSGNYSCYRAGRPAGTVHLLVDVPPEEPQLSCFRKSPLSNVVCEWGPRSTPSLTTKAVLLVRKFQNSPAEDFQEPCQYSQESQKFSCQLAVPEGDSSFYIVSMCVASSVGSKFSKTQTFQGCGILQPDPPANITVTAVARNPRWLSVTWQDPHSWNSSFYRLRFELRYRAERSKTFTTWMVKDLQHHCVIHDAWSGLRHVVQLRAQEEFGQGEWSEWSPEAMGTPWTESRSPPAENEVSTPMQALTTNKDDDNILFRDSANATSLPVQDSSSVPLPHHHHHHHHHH
The description is as above.

The target of assay [5] is T1, human IL6R-Fc protein. The experiment in a line: benchmark blocking ELISA: antibody pre-incubated with biotin-labeled human IL6R-Fc, added to plate-coated Tocilizumab (competitor: Tocilizumab). This is another data set of the same source.
Target sequence in this assay (chain, as listed by the source limits assumed): as the sequence (chain, as listed by the source limits assumed) above
The target of assay [6] is T1, human IL6R-Fc protein. The description is as above. The method, then:
as §1, §2
The source holds these as a separate data set.

The target of assay [7] is T1, human IL6R-Fc protein. The assay is described as above. How it is done:
as §1, §2
This is another data set of the same source.

The target of assay [8] is T4, human IL6R expressed on cell surface (human, UniProt P08887 20-468).
T4 construct: whole, on cells; also called cell surface human IL6R; U266 cells expressing human IL6R
T4 sequence (looked up): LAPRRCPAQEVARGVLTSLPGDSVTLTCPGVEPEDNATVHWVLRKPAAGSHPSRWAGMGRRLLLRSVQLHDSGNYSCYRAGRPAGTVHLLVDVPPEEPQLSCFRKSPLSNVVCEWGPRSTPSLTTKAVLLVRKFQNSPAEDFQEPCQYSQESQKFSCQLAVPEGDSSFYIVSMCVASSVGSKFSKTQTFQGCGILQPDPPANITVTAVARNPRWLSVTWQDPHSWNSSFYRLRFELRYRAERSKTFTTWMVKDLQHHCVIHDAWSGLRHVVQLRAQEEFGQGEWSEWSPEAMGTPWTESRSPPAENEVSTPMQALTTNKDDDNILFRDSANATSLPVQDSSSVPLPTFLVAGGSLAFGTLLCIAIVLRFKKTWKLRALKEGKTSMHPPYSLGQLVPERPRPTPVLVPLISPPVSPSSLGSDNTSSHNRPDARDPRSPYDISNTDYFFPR
The experiment in a line: cell-based binding FACS on U266 cells. How it is done: The binding activities of the mouse anti-IL6R antibodies to IL6R expressed on cell surface were tested by flow cytometry (FACS). Briefly, human myeloma cells U266 (ATCC® TIB-196™) were harvested from cell culture flasks, washed twice and resuspended in phosphate buffered saline (PBS) containing 2% v/v Fetal Bovine Serum (FACS buffer). 2×10⁵ U266 cells per well were incubated in 96 well-plates with 100 μl of the anti-IL6R antibodies or controls at various concentrations (starting at 40 nM with a 3-fold serial dilution in FACS buffer) for 40 minutes on ice. Cells were washed twice with FACS buffer, and added with 100 μL/well R-Phycoerythrin AffiniPure F(ab′)₂ Fragment Goat Anti-Mouse IgG (H+L) (1:1000 dilution in FACS buffer, Jackson ImmunoResearch Laboratories, Inc., Cat #115-116-146). Following an incubation of 40 minutes at 4° C. in dark, cells were washed three times and resuspended in FACS buffer. Fluorescence was measured using a Becton Dickinson FACS Canto II-HTS equipment. Data was analyzed using Graphpad Prism software and EC₅₀ values were reported.

The target of assay [9] is T1, human IL6R-Fc protein. Put plainly: benchmark blocking ELISA: antibody pre-incubated with biotin-labeled human IL6R-Fc, added to plate-coated Tocilizumab (competitor: Tocilizumab). The method, then:
as §1, §2
Target sequence in this assay (chain, as listed by the source limits assumed): as the sequence (chain, as listed by the source limits assumed) above
The source holds these as a separate data set.

Like-named read-outs stand apart in the source and are kept apart here.

B1: Chimeric 1H7 (antibody, human IgG1, kappa, V domains shown)
VH: QVQLQQPGTELVKPGASVKLSCKASGYTFTNYWMHWVKQRPGQGLDWIGEINPTNGRTNYNENFKSKATLTVDKSSSTAYMQLSSLTSEDSAVYYCARLNTHYVFDSWGQGTTLTLSS
VL: EIVLTQSPTTLAASPGEKITFTCSVSSSISSNYLHWYQQKPGFSPKLLISRTSTLASGVPARFSGSGSGTSYSLTIGTMEAEDVATYYCQQGSGIPFTFGSGTKLELKR
notes: Mouse variable regions on human IgG1 / human kappa constant regions; also called chimeric antibody 1H7
In the case of B1, the IC50 in [1] came to 0.203 nM. Also, in [2], the EC50 was determined as 0.227 nM. In addition, in assay [3], the Kd was determined as 1.18 nM, the koff was 0.000112 s⁻¹ and the association rate constant (kon) came to 94800 M⁻¹ s⁻¹. For the same molecule, in [4], the equilibrium dissociation constant (Kd) was 0.85 nM, the koff stood at 0.000112 s⁻¹ and the kon came out at 132000 M⁻¹ s⁻¹. The same molecule showed a half-inhibitory concentration (IC50) in assay [5] of 0.194 nM.

B2: mouse anti-IL6R monoclonal antibody 1F7 (antibody, V domains shown)
VH: QVQLQQPGAELVKPGASVKLSCKASDYTFTSYWMHWVKQRPGQGLEWIGEINPSNGRTNYNEKFKNKATLTVDKSSSTAYVQLYSLTSEDSAVYYCARLSIHYVFDYWGQGTTLTVSS
VL: ELVLTQSPTTMAASPGEKITFTCSASSSISSNYLHWYQQKPGFSPKLLISGTSNLASGVPPRFSGSGSGTSYSLTIVTMEAEDVATYYCQQGSGIPFTFGSGTKLEIK
notes: Mouse hybridoma mAb
As to B2, the IC50 in assay [6] came out at 0.311 nM.

B3: mouse anti-IL6R monoclonal antibody 1H7 (antibody, V domains shown)
VH: QVQLQQPGTELVKPGASVKLSCKASGYTFTNYWMHWVKQRPGQGLDWIGEINPTNGRTNYNENFKSKATLTVDKSSSTAYMQLSSLTSEDSAVYYCARLNTHYVFDSWGQGTTLTLSS
VL: EIVLTQSPTTLAASPGEKITFTCSVSSSISSNYLHWYQQKPGFSPKLLISRTSTLASGVPARFSGSGSGTSYSLTIGTMEAEDVATYYCQQGSGIPFTFGSGTKLELK
notes: Mouse hybridoma mAb
Take B3: the half-inhibitory concentration (IC50) in assay [1] is 0.237 nM; in assay [5] it was 0.186 nM. The EC50 in [2] was 0.147 nM.

B4: mouse anti-IL6R monoclonal antibody 1D4 (antibody, V domains shown)
VH: QVQLQQPGAELVKPGASVKLSCKASGYTFTSYWMHWVKVRPGQGLEWIGEINPTNGRTNYNEDFKSKATLTVNSSSSTAYMQLSSLTSEDSAVYYCARLNTHYVFDYWGQGTTLTVSS
VL: EIVLTQSPTILAASPGEKITFTCSVSSSISSNYLHWYQQKPGFSPKLLIYRTSNLASGVPARFSGSGSGTSYSLTIGTMEAEDVATYYCQQGSGIPFTFGSGTKLEIK
notes: Mouse hybridoma mAb
B4: the IC50 in assay [6] was 0.467 nM.

B5: mouse anti-IL6R monoclonal antibody 3C2 (antibody, V domains shown)
VH: QVQLQQPGTELVKPGASVKLSCKASGYTFTTYWIHWVKQRPGQGLEWIGEINPSNGRTNYNEHFKSKATLTVDKSSSTASMQLSSLTSADSAVYYCARLNTHYVFDSWGQGTTLTVSS
VL: EIVLTQSPTTMAASPGEKITITCSASSSISSNYLHWYQQKPGFSPKLLIYRTSNLASGVPTHFSGSGSGTSYSLTIGTMEAEDVATYYCQQGSGIPFTFGSGTKLEIK
notes: Mouse hybridoma mAb
The molecule B5 displayed a half-maximal inhibitory concentration (IC50) in assay [7] of 0.708 nM. Besides, the midpoint of the response in assay [8], the EC50, lay at 0.286 nM.

B6: mouse anti-IL6R monoclonal antibody 1A3 (antibody, V domains shown)
VH: QVQLQQPGAELVKPGASVKLSCKASGYTFTSYWMHWVKQRPAQGLEWIGEINPSNGRTNFNEKFKTKATLTVDKSSNTAYMQLSSLTSEDSAVYSCLRLNTHYVFDYWGQGTTLTVSS
VL: EIVLTQSPTTMAASPGEKITITCSASSSISSNYLHWYQQKPGFSPKLLISRTSNLASGVPTRFSGSGSGTSYSLTIGTMEAGDVATYYCQQGSGIPFTFGSGTKLEIK
notes: Mouse hybridoma mAb purified on Protein A
Take B6: the IC50 in [9] turned out to be 0.166 nM.

B7: mouse anti-IL6R monoclonal antibody 1B5 (antibody, V domains shown)
VH: QVQLQQPGAELVKPGASVKLSCKASGYTFTSYWMHWVKQRPGQGLEWIGEINPSNGRTNYNENFKSKATLTVDKSSSTAYMQLSSLTSEDSAVYYCARLNTHYVFDYWGQGTTLTVSS
VL: EIVLTQSPTILAASPGEKITFTCSVSSSISSNYLHWYQQKPGFSPKLLIYRTSNLASGVPARFSGSGSGTSYSLTIGTMEAEDVATYYCQQGSGIPFTFGSGTKLEIK
notes: Mouse hybridoma mAb
On to B7, for which the IC50 came to 0.162 nM in [9] and 0.23 nM in assay [5].

B8: mouse anti-IL6R monoclonal antibody 1G1 (antibody, V domains shown)
VH: QVQLQQPGAELVKPGASVKLSCKASGYTFTSYWMHWVKVRPGQGLEWIGEINPTNGRTNYNEDFKSKATLTVESSSSTAYMQFSSLTSEDSAVYYCARLNTHYVFDYWGQGTTLTVSS
VL: EIVLTQSPTILAASPGEKITFTCSVSSSISSNYLHWYQQKPGFSPKLLIYRTSNLASGVPARFSGSGSGTSYSLTIGTMEAEDVATYYCQQGSGIPFTFGSGTKLEIK
notes: Mouse hybridoma mAb
The molecule B8 returned an IC50 in assay [7] of 0.481 nM. In assay [8], this molecule came in with a 50% effective concentration (EC50) of 0.34 nM.

B9: humanized antibody hu1H7-V5 (antibody, human IgG1, kappa, V domains shown)
VH: QVQLVQSGAEVKKPGASVKVSCKASGYTFTNYWMHWVRQAPGQGLEWIGEINPTNGRTNYNENFKSRVTLTVDTSTSTVYMELSSLRSEDTAVYYCARLNTHYVFDSWGQGTLVTVSS
VL: EIVLTQSPGTLSLSPGERATLSCSVSSSISSNYLHWYQQKPGLSPRLLISRTSTLASGIPARFSGSGSGTEYTLTISRMQSEDFAVYYCQQGSGIPFTFGQGTKLEIKR
notes: Human IgG1 / kappa
The molecule B9 came in with a half-maximal inhibitory concentration (IC50) in [1] of 0.364 nM. This molecule also gave an EC50 in [2] of 0.242 nM. In [3], this molecule came in with a Kd of 1.58 nM, a koff of 0.00012 s⁻¹ and an on-rate constant (kon) of 75800 M⁻¹ s⁻¹. Besides, in assay [4], the Kd amounted to 0.773 nM, the koff is 0.000112 s⁻¹ and the kon came to 145000 M⁻¹ s⁻¹.
